In patent US7851180B2, “Microorganism producing L-methionine precursor and the method of producing L-methionine precursor using the microorganism” (CJ Cheiljedang Corporation, priority 2008, dated 2010):
Numbering of substitutions follows the chain as printed.

B1: #11: feed-back resistant metA 11 gene product, amino acid sequence SEQ. ID. NO: 16 (protein, listed as Escherichia coli)
chain: MPIRVPDELPAVNFLREENVFVMSTSRASGQEIRPLKVLILNLMPKKIETENQFLRLLSNSPLQVDIQLLRIDSRESRNTPAEHLNNFYCNFEDIQDQNFDGLIVTGAPLGLVEFNDVAYWPQIKQVLEWSKDHVTSTLFVCWAVQAALNILYGIPKQTRTEKLSGVYEHHILHPHALLTRGFDDSFLAPHSRYADFPAALIRDYTDLEILAETEEGDAYLFASKDKRIAFVTGHPEYDAQTLAQEFFRDVEAGLDPDVPYNYFPHNDPQNTPRESWRSHGNLLFTNWLNYYVYQIAPYDLRHMYPTLD
B2: #37: feed-back resistant metA 37 gene product, amino acid sequence SEQ. ID. NO: 20 (protein, listed as Escherichia coli)
chain: B1 chain with S24T, S29P, E114G, F140S, E275A, A297T, Y305N
B3: #32: feed-back resistant metA 32 gene product, amino acid sequence SEQ. ID. NO: 18 (protein, listed as Escherichia coli)
chain: B1 chain with S24T, E275A, N290H, A297T, Y305N
B4: #41: feed-back resistant metA 41 gene product, amino acid sequence SEQ. ID. NO: 22 (protein, listed as Escherichia coli)
chain: B1 chain with S24T, N79S, F140I, E275A, Y291N, A297T, M304L, Y305N
B5: #10: feed-back resistant metA 10 gene product, amino acid sequence SEQ. ID. NO: 14 (protein, listed as Escherichia coli)
chain: B1 chain with S24T, K163Q, F222L, E275A, Q295R, A297T, Y305N
B6: w.t.: wild type metA, homoserine O-succinyltransferase of E. coli (protein, UniProt P07623 2-309, looked up)
Homoserine …: PIRVPDELPAVNFLREENVFVMTTSRASGQEIRPLKVLILNLMPKKIETENQFLRLLSNSPLQVDIQLLRIDSRESRNTPAEHLNNFYCNFEDIQDQNFDGLIVTGAPLGLVEFNDVAYWPQIKQVLEWSKDHVTSTLFVCWAVQAALNILYGIPKQTRTEKLSGVYEHHILHPHALLTRGFDDSFLAPHSRYADFPAALIRDYTDLEILAETEEGDAYLFASKDKRIAFVTGHPEYDAQTLAQEFFRDVEAGLDPDVPYNYFPHNDPQNTPRASWRSHGNLLFTNWLNYYVYQITPYDLRHMNPTLD

tested on: homoserine O-succinyltransferase (metA); assay: Feed back resistance of mutant metA in the presence of 100 mM methionine; type: biochemical, Escherichia coli; conditions: w/ 100 mM Met; control without Met = 100
Experimental: To increase production of O-succinylhomoserine which is L-methionine precursor, overexpression of feed-back resistant metA gene encoding homoserine O-succinyltransferase was performed. PCT/US2007/009146 discloses the method for preparing feed-back resistant metA gene and activity of that.
The sequence of the feed-back resistant metA 10 gene is represented in SEQ. ID. NO: 13 and the amino acid sequence encoding by the gene is represented in SEQ. ID. NO: 14. The sequence of metA 11 gene is represented in SEQ. ID. NO: 15 and the amino acid sequence encoding by the gene is represented in SEQ. ID. NO: 16. The sequence of metA 32 gene is represented in SEQ. ID. NO: 17 and the amino acid sequence encoding by the gene is represented in SEQ. ID. NO: 18. The sequence of metA 37 gene is represented in SEQ. ID. NO: 19 and the amino acid sequence encoding by the gene is represented in SEQ. ID. NO: 20. The sequence of metA 41 gene is represented in SEQ. ID. NO: 21 and the amino acid sequence encoding by the gene is represented in SEQ. ID. NO: 22 (PCT/US2007/009146).

Molecule	% of specific activity retention
B1	94%
B2	83%
B3	79%
B4	74%
B5	97%
B6	7.6%

tested on: W3-BTJA strain; assay: O-succinylhomoserine production of feed back resistant metA in W3-BTJA strain, Erlenmeyer flask culture; type: cell-based, E. coli; conditions: metA plasmid in W3-BTJA strain; flask culture 64 hours, HPLC; wild type = 100%
Experimental: The vector was electroporated into W3-BTJA strain and production capacity of the strain was checked using Erlenmeyer flask culture as described in Example 2-1, O-succinylhomoserine production of modified strain is measured, based on 100% of O-succinylhomoserine production of wild type strain.
To measure the methionine precursor production of each strain constructed in Example 1, Erlenmeyer flask culture was performed. Each strain was cultured on LB plate media at 31° C. for overnight. A single colony was inoculated in 3 ml of LB medium, followed by culture at 31° C. for 5 hours. The culture solution was 200 fold diluted in 250 ml Erlenmeyer flask containing 25 ml of methionine precursor producing medium, followed by culture at 31° C., 200 rpm for 64 hours. HPLC was performed to compare with methionine precursor production capacity (Table 2 and Table 3).

Molecule	O-succinylhomoserine production (%)
B1	425%
B2	227%
B3	396%
B4	389%
B5	392%
B6	100%

same assay, conditions: metA vector in W3-BTJA strain, flask culture

Molecule	O-succinylhomoserine production compared with wild type
B1	the most effective production
B3	the most effective production
B5	the most effective production
